OD450 data for 25 molecules are collected here from patent US20250320312A1 (OXITOPE PHARMA B V, published 2025).

Sequences and labels used below:
B1: PcOxP_DB02_C01 (scFv, V domains shown)
VH: EVQLLESGGGLVQPGGSLRLSCAASGFTFSDAYMEWVRQAPGKGLEWVAASRNKANDYTTEYADSVKGRFTISRDNSKNTLYLQMNSLRAEDTAVYYCARDYYGSSYWYFDVWGQGTLVTVSS
VL: DIQMTQSPSSLSASVGDRVTITCTASESLYSSKHKVHYLAWYQQKPGKAPKLLIYGASNRYIGVPSRFSGSGSGTDFTLTISSLQPEDFATYYCAQFYSYPLTFGGGTKVEIK
notes: scFv in periplasmic extract
B2: PcOxP_DB02_G07 (scFv, V domains shown)
VH: B1 VH with A32G
VL: B1 VL with I62G
notes: scFv in periplasmic extract
B3: PcOxP_DB03_C06 (scFv, V domains shown)
VH: B1 VH with F27A, A32F, K54G, S105N
VL: B1 VL with Y61Q, I62S, S99V
notes: scFv in periplasmic extract
B4: PcOxP_DB03_A08 (scFv, V domains shown)
VH: B1 VH with A32V
VL: B1 VL
notes: scFv in periplasmic extract
B5: PcOxP_DB03_C03 (scFv, V domains shown)
VH: B1 VH with A32F, A55Y
VL: B1 VL
notes: scFv in periplasmic extract
B6: PcOxP_DB02_F02 (scFv, V domains shown)
VH: B1 VH with A32F
VL: B1 VL with T24F, Y61G
notes: scFv in periplasmic extract
B7: PcOxP_DB02_C09 (scFv, V domains shown)
VH: B1 VH
VL: B1 VL with S58G, S99F
notes: scFv in periplasmic extract
B8: PcOxP_DB02_E01 (scFv, V domains shown)
VH: B1 VH with A32Q
VL: B1 VL with N59G
notes: scFv in periplasmic extract
B9: PcOxP_DB03_A09 (scFv, V domains shown)
VH: B1 VH with A32Y
VL: B1 VL with Y61G
notes: scFv in periplasmic extract
B10: PcOxP_DB03_A11 (scFv, V domains shown)
VH: B1 VH with D31S, A32Y, K54Q, F110L
VL: B1 VL with S58D, S99H
notes: scFv in periplasmic extract
B11: PcOxP_DB02_F07 (scFv, V domains shown)
VH: B1 VH with T28W, A32F
VL: B1 VL with E27Q, H34N, A57E
notes: scFv in periplasmic extract
B12: PcOxP_DB02_F12 (scFv, V domains shown)
VH: B1 VH
VL: B1 VL with T24E, I62P, S99E
notes: scFv in periplasmic extract
B13: PcOxP_DB03_A03 (scFv, V domains shown)
VH: B1 VH with A32F
VL: B1 VL with N59F
notes: scFv in periplasmic extract
B14: PcOxP_DB02_D09 (scFv, V domains shown)
VH: B1 VH with D31T, A32F
VL: B1 VL with I62G, S99E
notes: scFv in periplasmic extract
B15: PcOxP_DB02_C06 (scFv, V domains shown)
VH: B1 VH
VL: B1 VL with S28W, Y61N, S99Y
notes: scFv in periplasmic extract
B16: PcOxP_DB02_G06 (scFv, V domains shown)
VH: B1 VH with D31S, A32Y, K54Q, S106P
VL: B1 VL with A57V
notes: scFv in periplasmic extract
B17: PcOxP_DB02_H10 (scFv, V domains shown)
VH: B1 VH with A32Y
VL: B1 VL with S58G, S99E
notes: scFv in periplasmic extract
B18: PcOxP_DB02_D01 (scFv, V domains shown)
VH: B1 VH with T28G, A32F, N53H
VL: B1 VL with S99W
notes: scFv in periplasmic extract
B19: PcOxP_DB02_G09 (scFv, V domains shown)
VH: B1 VH with A32Q
VL: B1 VL with Y61P
notes: scFv in periplasmic extract
B20: PcOxP_DB03_B02 (scFv, V domains shown)
VH: B1 VH with T28A, A32F
VL: B1 VL with I62D, S99E
notes: scFv in periplasmic extract
B21: PcOxP_DB02_E10 (scFv, V domains shown)
VH: B1 VH with A32Q, T59Q
VL: B1 VL with S32G, R60L, Y61Q, S99Y
notes: scFv in periplasmic extract
B22: PcOxP_DB02_C02 (scFv, V domains shown)
VH: B1 VH with A32F, T60V, S105H
VL: B1 VL
notes: scFv in periplasmic extract
B23: PcOxP_DB02_C11 (scFv, V domains shown)
VH: B1 VH with F29S, A32F, T59Y
VL: B1 VL
notes: scFv in periplasmic extract
B24: PcOxP_DB02_H03 (scFv, V domains shown)
VH: B1 VH with A32F
VL: B1 VL with L29I, Y30S, R60L, I62S, Q96H
notes: scFv in periplasmic extract
B25: PcOxP_DB02_D10 (scFv, V domains shown)
VH: B1 VH with A32Q
VL: B1 VL with S26T, I62T
notes: scFv in periplasmic extract

Where a chain is given by its changes, count along the chain named.

Chain of BSA (P02769 25-607 limits assumed): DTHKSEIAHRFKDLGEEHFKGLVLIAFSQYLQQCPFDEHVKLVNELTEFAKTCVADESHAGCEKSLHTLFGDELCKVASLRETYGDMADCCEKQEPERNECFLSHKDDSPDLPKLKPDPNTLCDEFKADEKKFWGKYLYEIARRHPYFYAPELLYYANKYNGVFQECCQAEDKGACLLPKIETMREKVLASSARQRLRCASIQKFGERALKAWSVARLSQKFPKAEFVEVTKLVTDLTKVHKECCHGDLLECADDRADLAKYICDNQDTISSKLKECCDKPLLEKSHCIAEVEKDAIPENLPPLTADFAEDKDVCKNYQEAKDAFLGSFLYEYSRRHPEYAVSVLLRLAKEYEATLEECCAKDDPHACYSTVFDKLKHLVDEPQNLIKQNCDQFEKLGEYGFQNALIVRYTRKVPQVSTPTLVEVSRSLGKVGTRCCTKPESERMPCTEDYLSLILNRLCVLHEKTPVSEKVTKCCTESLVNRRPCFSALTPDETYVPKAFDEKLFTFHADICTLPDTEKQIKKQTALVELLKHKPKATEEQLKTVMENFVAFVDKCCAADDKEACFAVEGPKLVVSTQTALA

One assay deals with T1, Peptide 4: Biotin-AGGGGSGGGGSGGGGSAAA-Tyr-acid (N-terminal biotin; C-terminal acid).
T1 construct: control peptide without PC
T1 peptide: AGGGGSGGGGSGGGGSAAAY
In words: scFv ELISA. Put shortly:
(§1)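 Bound scFv was read as OD450 after HRP–anti-V5 detection, TMB development and HCl stop. PPE with BSA was incubated 1 h at RT on BSA-blocked wells coated overnight at 4° C. with peptide, or on streptavidin wells loaded 1 h with biotinylated PC-peptides at 1 μg/mL.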
On the technique in general: In an ELISA, binding on a coated surface is turned into a signal by an enzyme label.
B1 came in with an OD450 of 0.06 OD450.
Same read-out and setting: next, B2: 0.05 OD450.
The molecule B3 showed an OD450 of 0.05 OD450.
The same measure, in the same setting: next, B4: 0.06 OD450; B5: 0.05 OD450; B6: 0.05 OD450.
Still for that read-out and setting: next, B7: 0.05 OD450; B8: 0.05 OD450; B9: 0.05 OD450.
For the molecule B10, the OD450 is 0.05 OD450.
With B11, the OD450 amounted to 0.05 OD450.
Still for that read-out and setting: next, B12: 0.04 OD450.
On the same count and under the same terms, next, B13: 0.06 OD450; B14: 0.05 OD450; B15: 0.05 OD450.
Still for that read-out and setting: next, B16: 0.06 OD450.
In the case of B17, the OD450 is 0.05 OD450.
Still for that read-out and setting: next, B18: 0.05 OD450.
Turning to B19, the OD450 came out at 0.05 OD450.
As for B20, the OD450 was 0.05 OD450.
The same measure, in the same setting: next, B21: 0.04 OD450; B22: 0.05 OD450; B23: 0.05 OD450.
Still for that read-out and setting: next, B24: 0.05 OD450.
On the same count and under the same terms, next, B25: 0.05 OD450.

The target in another assay is T2, Peptide 8: Biotin-AEAAAKEAAAKEAAAKEAAAKAAA-Tyr-acid (N-terminal biotin; C-terminal acid).
T2 construct: control peptide without PC
T2 peptide: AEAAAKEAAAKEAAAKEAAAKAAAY
In words: scFv ELISA. In outline: as §1
In the case of B1, the OD450 is 0.05 OD450.
Still for that read-out and setting: next, B2: 0.09 OD450; B3: 0.05 OD450; B4: 0.05 OD450.
In turn, B5 had an OD450 of 0.05 OD450.
The molecule B6 returned an OD450 of 0.05 OD450.
On the same count and under the same terms, next, B7: 0.04 OD450.
The same measure, in the same setting: next, B8: 0.1 OD450.
On the same count and under the same terms, next, B9: 0.05 OD450.
Molecule B10 showed an OD450 of 0.05 OD450.
Same read-out and setting: next, B11: 0.05 OD450; B12: 0.04 OD450; B13: 0.06 OD450.
Same read-out and setting: next, B14: 0.04 OD450; B15: 0.05 OD450.
B16 came in with an OD450 of 0.05 OD450.
Regarding B17, the OD450 was found to be 0.05 OD450.
Same read-out and setting: next, B18: 0.05 OD450; B19: 0.04 OD450; B20: 0.05 OD450.
Regarding B21, the OD450 came to 0.04 OD450.
Same read-out and setting: next, B22: 0.05 OD450; B23: 0.04 OD450; B24: 0.05 OD450.
Same read-out and setting: next, B25: 0.04 OD450.

Another assay has as its target BSA (UniProt P02769). In words: scFv ELISA.
The molecule B1 gave an OD450 of 0.1 OD450.
B2 yielded an OD450 of 0.1 OD450.
The same measure, in the same setting: next, B3: 0.07 OD450; B4: 0.11 OD450.
Same read-out and setting: next, B5: 0.09 OD450; B6: 0.11 OD450; B7: 0.1 OD450.
The molecule B8 registered an OD450 of 0.11 OD450.
The molecule B9 came in with an OD450 of 0.09 OD450.
Still for that read-out and setting: next, B10: 0.08 OD450.
On the same count and under the same terms, next, B11: 0.1 OD450; B12: 0.07 OD450.
Molecule B13 showed an OD450 of 0.09 OD450.
On the same count and under the same terms, next, B14: 0.11 OD450; B15: 0.11 OD450.
In turn, B16 registered an OD450 of 0.08 OD450.
For the molecule B17, the OD450 was 0.08 OD450.
Still for that read-out and setting: next, B18: 0.09 OD450; B19: 0.1 OD450.
The same measure, in the same setting: next, B20: 0.07 OD450; B21: 0.09 OD450; B22: 0.1 OD450.
In turn, B23 gave an OD450 of 0.1 OD450.
B24: the OD450 was 0.08 OD450.
Same read-out and setting: next, B25: 0.1 OD450.

A further assay deals with Peptide 5: Biotin-…-[Tyr(PC)]-acid. In words: scFv ELISA.
Take B1: the OD450 was found to be 1.47 OD450.
The same measure, in the same setting: next, B2: 0.99 OD450; B3: 0.61 OD450.
Molecule B4 had an OD450 of 0.71 OD450.
Regarding B5, the OD450 was 1.66 OD450.
B6 had an OD450 of 0.6 OD450.
In the case of B7, the OD450 is 1.01 OD450.
The same measure, in the same setting: next, B8: 0.63 OD450.
The same measure, in the same setting: next, B9: 1.09 OD450; B10: 1.08 OD450.
B11 gave an OD450 of 0.91 OD450.
Same read-out and setting: next, B12: 0.81 OD450.
The same measure, in the same setting: next, B13: 0.81 OD450; B14: 0.44 OD450; B15: 1.03 OD450.
Same read-out and setting: next, B16: 0.87 OD450; B17: 1.39 OD450.
B18: the OD450 was found to be 0.35 OD450.
On the same count and under the same terms, next, B19: 0.71 OD450; B20: 1.64 OD450; B21: 0.79 OD450.
B22 came in with an OD450 of 0.62 OD450.
In turn, B23 yielded an OD450 of 0.24 OD450.
B24 yielded an OD450 of 0.82 OD450.
For the molecule B25, the OD450 stood at 1.01 OD450.

A further assay has as its target Peptide 1: Biotin-…-[Tyr(PC)]-acid. In words: scFv ELISA.
The molecule B1 yielded an OD450 of 1.03 OD450.
As to B2, the OD450 was 0.52 OD450.
Take B3: the OD450 is 0.64 OD450.
The molecule B4 showed an OD450 of 0.67 OD450.
On the same count and under the same terms, next, B5: 1.36 OD450; B6: 0.37 OD450.
The molecule B7 had an OD450 of 0.69 OD450.
Regarding B8, the OD450 came out at 0.43 OD450.
The same measure, in the same setting: next, B9: 1.02 OD450.
In turn, B10 showed an OD450 of 1.12 OD450.
With B11, the OD450 stood at 0.43 OD450.
B12 showed an OD450 of 0.5 OD450.
The molecule B13 showed an OD450 of 0.54 OD450.
Take B14: the OD450 is 0.16 OD450.
Still for that read-out and setting: next, B15: 0.54 OD450; B16: 0.43 OD450; B17: 1.43 OD450.
The same measure, in the same setting: next, B18: 0.31 OD450; B19: 0.35 OD450.
In turn, B20 showed an OD450 of 2.02 OD450.
Still for that read-out and setting: next, B21: 0.52 OD450; B22: 0.35 OD450; B23: 0.12 OD450.
The molecule B24 gave an OD450 of 0.27 OD450.
B25 came in with an OD450 of 0.69 OD450.
